Measurements: publication doi:10.1101/2024.03.11.584335
Like-named read-outs stand apart in the source and are kept apart here.

Key:
[1] = target: RPAcoreΔP,W (minimal trimerization core, domains C, D, E) (human, UniProt P27694;P15927;P35244 438-616;35-174;1-121); test: BLI
RPAcoreΔP [2] = target: T1, RPAcoreΔP (human, UniProt P27694;P15927;P35244 438-616;35-270;1-121); test: BLI
RPAcoreΔP [3] = target: T1, RPAcoreΔP; test: BLI; remark: listed apart in the source
[4] = target: RPAcore;PolαCD (catalytic domain of DNA polymerase alpha) (human;human, UniProt P27694;P15927;P35244;P09884 438-616;1-270;1-121;335-1257, |); test: cryo-EM
Sequence of RPAcore;PolαCD (catalytic domain of DNA polymerase alpha) (P27694 438-616, chain 1 of 4): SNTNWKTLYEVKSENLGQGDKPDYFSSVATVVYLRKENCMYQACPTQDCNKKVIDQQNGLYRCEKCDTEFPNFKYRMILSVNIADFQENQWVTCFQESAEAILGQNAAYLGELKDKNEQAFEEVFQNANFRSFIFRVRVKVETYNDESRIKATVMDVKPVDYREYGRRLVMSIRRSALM
Sequence of RPAcore;PolαCD (catalytic domain of DNA polymerase alpha) (P15927 whole entry, chain 2 of 4, the tested form may be a part): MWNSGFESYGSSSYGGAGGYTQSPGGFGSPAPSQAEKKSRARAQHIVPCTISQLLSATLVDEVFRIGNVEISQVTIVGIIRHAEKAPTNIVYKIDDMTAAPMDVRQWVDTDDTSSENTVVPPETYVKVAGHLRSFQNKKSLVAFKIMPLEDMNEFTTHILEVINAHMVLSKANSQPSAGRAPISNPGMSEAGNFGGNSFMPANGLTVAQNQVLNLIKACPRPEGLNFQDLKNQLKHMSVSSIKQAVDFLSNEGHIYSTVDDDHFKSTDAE
Sequence of RPAcore;PolαCD (catalytic domain of DNA polymerase alpha) (P35244 whole entry, chain 3 of 4, the tested form may be a part): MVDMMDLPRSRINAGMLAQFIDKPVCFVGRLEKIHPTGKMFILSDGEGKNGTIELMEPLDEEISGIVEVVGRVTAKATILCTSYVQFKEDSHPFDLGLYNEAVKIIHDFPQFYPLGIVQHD
Sequence of RPAcore;PolαCD (catalytic domain of DNA polymerase alpha) (P09884 335-1257, chain 4 of 4): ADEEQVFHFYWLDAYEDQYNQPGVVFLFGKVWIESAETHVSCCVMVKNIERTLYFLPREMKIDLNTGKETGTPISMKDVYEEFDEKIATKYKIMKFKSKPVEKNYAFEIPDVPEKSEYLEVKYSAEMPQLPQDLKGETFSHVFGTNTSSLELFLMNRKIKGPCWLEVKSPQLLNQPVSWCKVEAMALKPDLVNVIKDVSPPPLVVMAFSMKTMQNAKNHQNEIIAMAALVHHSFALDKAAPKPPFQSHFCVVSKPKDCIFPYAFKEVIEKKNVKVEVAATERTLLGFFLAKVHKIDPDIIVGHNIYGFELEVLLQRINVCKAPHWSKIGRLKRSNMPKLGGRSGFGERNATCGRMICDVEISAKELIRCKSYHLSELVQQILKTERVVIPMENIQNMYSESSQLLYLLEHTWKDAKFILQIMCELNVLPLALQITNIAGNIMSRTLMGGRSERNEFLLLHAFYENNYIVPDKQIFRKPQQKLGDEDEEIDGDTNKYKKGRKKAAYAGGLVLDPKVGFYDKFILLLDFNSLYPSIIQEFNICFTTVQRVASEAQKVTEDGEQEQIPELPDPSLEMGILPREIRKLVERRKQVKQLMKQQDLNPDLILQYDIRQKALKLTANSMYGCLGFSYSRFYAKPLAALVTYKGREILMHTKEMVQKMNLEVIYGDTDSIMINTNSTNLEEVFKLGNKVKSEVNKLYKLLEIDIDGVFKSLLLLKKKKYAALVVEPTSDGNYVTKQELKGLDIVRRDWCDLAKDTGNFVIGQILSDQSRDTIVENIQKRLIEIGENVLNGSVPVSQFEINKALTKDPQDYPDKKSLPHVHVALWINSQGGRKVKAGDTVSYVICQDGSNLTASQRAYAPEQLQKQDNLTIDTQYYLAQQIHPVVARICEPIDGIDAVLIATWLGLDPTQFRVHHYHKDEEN

T1 sequence (P27694 438-616, stated change not applied, chain 1 of 3): as the sequence (P27694 438-616, chain 1 of 4) above
T1 sequence (P15927 35-270, stated change not applied, chain 2 of 3): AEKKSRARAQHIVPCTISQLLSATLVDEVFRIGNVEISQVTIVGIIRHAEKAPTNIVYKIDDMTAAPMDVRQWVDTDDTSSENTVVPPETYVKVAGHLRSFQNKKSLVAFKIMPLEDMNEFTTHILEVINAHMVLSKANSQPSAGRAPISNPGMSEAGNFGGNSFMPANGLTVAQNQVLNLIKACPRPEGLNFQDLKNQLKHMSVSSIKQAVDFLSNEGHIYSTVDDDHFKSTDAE
T1 sequence (P35244 whole entry, stated change not applied, chain 3 of 3): as the sequence (P35244 whole entry, chain 3 of 4, the tested form may be a part) above
Sequence of RPAcoreΔP,W (minimal trimerization core, domains C, D, E) (P27694 438-616, stated change not applied, chain 1 of 3): as the sequence (P27694 438-616, chain 1 of 4) above
Sequence of RPAcoreΔP,W (minimal trimerization core, domains C, D, E) (P15927 35-174, stated change not applied, chain 2 of 3): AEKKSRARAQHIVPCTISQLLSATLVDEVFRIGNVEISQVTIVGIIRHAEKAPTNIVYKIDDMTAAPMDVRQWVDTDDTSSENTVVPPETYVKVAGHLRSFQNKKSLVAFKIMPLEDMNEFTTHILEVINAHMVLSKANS
Sequence of RPAcoreΔP,W (minimal trimerization core, domains C, D, E) (P35244 whole entry, stated change not applied, chain 3 of 3): as the sequence (P35244 whole entry, chain 3 of 4, the tested form may be a part) above

Row | Binder | Kd [1] [nM] | Kd (RPAcoreΔP [2]) [nM] | Kd (RPAcoreΔP [3]) [nM] | binding result [4]
1 | T8:P3 template:primer (mixed, P3 is a chimeric RNA-DNA primer (RNA/DNA boundary not in the material) with 3'-dideoxycytidine) DNA: AATCTAGTAACATAGTATACATAAGCGCTCCAGGC RNA: GCCUGGAGCGC | 90.2 ± 4.5 | 124 ± 15 | 50.3 ± 6.6 | –
2 | T9:P4 template:primer (mixed, P4 primer contains U (RNA-DNA chimera?) and 3'-dideoxycytidine) DNA: AATCTAGTAACATAGTATACATAGGCGCTCCAGGC RNA: GCCUGGAGCGC | – | – | – | binds
